In patent US8871909B2, “Antibodies inhibiting c-Met dimerization and uses thereof” (Pierre Fabre Medicament, priority 2007, dated 2014):

How the values were obtained:
[1] = test system: NCI-H441; test: In vivo combination of 224G11 and Doxorubicin on NCI-H441 xenograft model; set-up: species or system Athymic nude mice; conditions: D11 to D39; Doxorubicin 5 mg/kg i.v.
Procedure: NCI-H441 cells from ATCC were routinely cultured in RPMI 1640 medium, 10% FCS, 1% L-Glutamine. Cells were split two days before engraftment being in exponential phase of growth. Ten million NCI-H441 cells were engrafted to Athymic nude mice. […] Mice were treated i.p. either with a loading dose of 2 mg of 224G11 Mab/mouse and then twice a week with 1 mg of antibody/mouse or with 4 injections of Doxorubicin (D5, D12, D19, D26) at 5 mg/kg. A third group administered with the combine treatment was also included. Doxorubicin was given by i.v. injections. Tumor volume was measured twice a week and calculated by the formula: π/6×length×width×height and animal weights were monitored every day over the period of Doxorubicin treatment. Statistical analysis was performed at each measured time using either a t-test or a Mann-Whitney test. […] Results are represented in FIG. 46.

[2] = test system: NCI-H441; test: In vivo combination of 224G11 and Navelbine on NCI-H441 xenograft model (Example 19); set-up: species or system Athymic nude mice; conditions: day 41 post first injection
Procedure: NCI-H441 cells from ATCC were routinely cultured in RPMI 1640 medium, 10% FCS, 1% L-Glutamine. Cells were split two days before engraftment being in exponential phase of growth. Ten million NCI-H441 cells were engrafted to Athymic nude mice. […] Mice were treated i.p. either with a loading dose of 2 mg of 224G11 Mab/mouse and then twice a week with 1 mg of antibody/mouse until Day 38 or with 3 injections of Navelbine® (D5, D12, D19) at 8 mg/kg. A third group administered with the combine treatment was also included. Navelbine® was given by i.p. injections. Tumor volume was measured twice a week and calculated by the formula: π/6×length×width×height and animal weights were monitored every day over the period of Navelbine® treatment. Statistical analysis was performed at each measured time using either a t-test or a Mann-Whitney test. […] Results are represented in FIG. 45.

[3] = test system: NCI-H441; test: Established xenograft NCI-H441 tumor model, 224G11 alone or with Navelbine (Example 15); assay type: in vivo, Swiss nude mice; conditions: 224G11 2 mg loading then 1 mg twice a week i.p.; Navelbine 8 mg/kg i.p. days 5, 12, 19
Procedure: Briefly, NCI-H441 cells from ATCC were routinely cultured in RPMI 1640 medium, 10% FCS and 1% L-Glutamine. Cells were split two days before engraftment so that they were in exponential phase of growth. Ten million NCI-H441 cells were engrafted in PBS to 7 weeks old Swiss nude mice. […] Mice were treated i.p. with a loading dose of 2 mg of 224G11/mouse and then twice a week, for 43 days, with 1 mg of antibody/mouse. The 9G4 MAb was used as an isotype control.
Navelbine® was given by i.p. injections at a dose of 8 mg/kg on days 5, 12, 19 post-cell injection. For combined therapy with both 224G11 and Navelbine®, the two compounds were administered separately. In this experience the 2 compounds were used at their optimal dosage. Tumor volume was measured twice a week and calculated by the formula: p/6×length×width×height.

[4] = test system: MDA-MB-231; test: MDA-MB-231 cells co-implanted with MRC5 cells xenograft; assay type: in vivo, Athymic nude mice; conditions: 2 mg loading dose then 1 mg twice a week i.p.
Procedure: […] and MRC5 cells from ATCC were both cultured in DMEM medium, 10% FCS, 1% L-Glutamine. Cells were split two days before engraftment being in exponential phase of growth. Five million MDA-MB-231 cells and 500 000 MRC5 cells were co-injected s.c. to Athymic nude mice. […] Mice were treated i.p. either with a loading dose of 2 mg of 224G11 Mab/mouse and then twice a week with 1 mg of antibody/mouse. Tumor volume was measured twice a week and calculated by the formula: π/6×length×width×height.

[5] = test system: NCI-H441 cells; test: Wound healing (migration) assay with NCI-H441 cells; assay type: cell-based
Procedure: HGF stimulates motility. To determine whether the anti-HGF antibodies were able to inhibit migration, NCI-H441 cells were grown to high density and a gap was introduced with a P200 pipette tip. Cells were then stimulate to migrate across the gap with HGF (100 ng/ml) in presence or in absence of 11E1. Wells with 11E1 alone were also evaluated. Each tested condition was evaluated as a sextuplicate and 3 independent experiments were performed. After an overnight incubation, cells were visualized with an Axio Vision Camera (objective ×4).

Row | Molecule | anti-tumor activity compared to the control group [1] | reduction of average tumor volume [2] | anti-tumor activity [3] | median tumors growth compared to the control group [4] | effect on cell migration in presence of HGF ([5]; NCI-H441, HGF 100 ng/ml) | agonist effect on cell migration, added alone ([5]; NCI-H441, no HGF)
1 | 224G11: murine anti-c-Met monoclonal antibody, IgG1 kappa; heavy chain SEQ ID No. 18, light chain SEQ ID No. 21 (antibody, V domains shown, mus musculus) VH: EVQLQQSGPELVKPGASVKISCKTSGYIFTAYTMHWVRQSLGESLDWIGGIKPNNGLANYNQKFKGKATLTVDKSSSTAYMDLRSLTSEDSAVYYCARSEITTEFDYWGQGTALTVSS VL: DIVLTQSPASLAVSLGQRATISCRASESVDSYANSFMHWYQQKPGQPPKLLIYRASNLESGIPARFSGSGSRTDFTLTINPVEADDVATYYCQQSKEDPLTFGSGTKLEMK | significant anti-tumor activity | 72% | as efficient as Navelbine® | significant difference in median tumors growth |  | 
2 | 11E1: murine anti-c-Met monoclonal antibody, IgG1 kappa; heavy chain SEQ ID No. 62, light chain SEQ ID No. 63 (antibody, V domains shown, mus musculus) VH: QVQLQQSGAELAKPGASVKMSCKASGYTFTSYWMNWVKQRPGQGLEWIGYINPTTGSTDYNQKLKDKATLTADKSSNTAYMQLSSLTSEDSAVYYCAIGGYGSWFAYWGQGTLVTVSA VL: QIVLTQSPAIMSASPGEKVTLTCSASSSVSSTYLYWYQQKPGSSPKLWIYTTSILASGVPARFSGSGSGTSYSLTISSMETEDAASYFCHQWSSYPFTFGSGTKLDIK |  |  |  |  | full antagonist | no agonist effect
